The data set is described as follows: label from the status in PepcDB records.
As for “LQPNMRTRVCTVINNNIAHEWTLARIASELLMSPSLLKKKLREEETSYSQLLTECRMQRALQLIVIHGFSIKRVAVSCGYHSVSYFIYVFRNYYGMTPTEYQERSAQRLSNRDSAAS”, the protein production entry is listed as “not failed”.

“LRLSCFIDQPTGLFNRSRLQEDIHEALASSVDYQLVVVDMITSAFLNDIVKALGYDFSQDLVTAIKERIESLLPRTCSLYKVGPTRFGFLLPGDRPPEHLFRTILEDFETPVECRGIPVQMQVGLGVVTLNRDPNEEQDWMRMVISAADDARDRDLGWA”: the protein production entry is reported as “failed”. “LSENTTPFGSVSQHDTQVNCQLQLNAANHLIVNEQTRNCFEYFLTQYGEKSLTQIDQDIKNYFTQSLPQPARDQAQDLWQRYLKYREELGNLKEPAIAKTDIAYYRAVFTSRQMLRQRFFSATEIAGLFGSEDIYNQYTLERMAILNNSKLSEIEKAKQLKALFDQLPQDWKANLEQLSKLDDLKQLTTSIKKNGGSAQELHDMRTNLVGHDATARLEQLDVERSNWKSNVTQYLDERQTILNSNMSDTAKQNAISALRSKNFTAPQDQIRVQAFESAKDQ”: the protein production entry is reported as “failed”.

“LTEAVSLMEANIEEPLSTDDIAYYVGVSRRQLERLFKQYLGTVPSKYYLELRLNRARQLLQQTSKSIVQIGLACGFSSGPHFSSTYRNHFNITPREERAQ”: the protein production result was “not failed”. Take “LTTEGGKALVDFAVKRNLQYIHFDAGWYGFEYDKVSDATTVTLDPRRNPDINALNLKEVVAYAKERGIGVILYVNQRALQQQLDEILPLYKSWGIAGIKFGFVQVGSQVWTKWMHEAIKKCADYGLMVDVHDEYRPTGFSRTYPNLM”: the protein production result is “failed”.

For the sequence “LVPLESDLSRAADLLNAGRKVAILAGRGALEAKEALRETAELLGAPVAKALLGKAVLPDDDPLTTGGIGILGTAPSQEIMQQCDTLLIIGSTFPYIEYYPRPNTAAGIQIDHDPQRIGLRYPVEVGLVGEAGETLRMLNKRLKRKQDRSFLERAQEQTRNWRRELRAMEGDRS”, the protein production result was “failed”.

Regarding “MAAAAAGPASSQRLFQSFSDALIDGDPQAALEELTKALEQNPDDAQYYCQRAYCHILLGKYRDGIADVKKSLELNPNNCTALLRKGICEYHEKDYASALETFAEGQKLDSTDTNFDTWIKRCQEIQNGSESEVSASQRTQSKIKYDWYQTESHVIITLMIKSVQKNDVRVGFSERELSALVKIPAGEDYSLKLRLLHPIIPEQSTFKVLSTKIEIKMKKPEAVRWEKLEGQGDEPTPKQFTADVKNMYPSSSHYTRNWDKLVGEIKEEEKNEKLEGDAALNKLFQQIYSDGSDEVKRAMNKSFMESGGTVLSTNWSDVGKRKVEINPPDDMEWKQY”, the protein production result is listed as “failed”.

As to “MAAAALREQLNALLSSMFASGLVDEQFQQLQMLQEDGGTPGFVAEVVTLFCDDADRIISELAALLDQPIVDFDKVDAYVHQLKGSSASVGAQKVKFTCMQFRQLCQDKNRDGCIMALAVVRNEFYDLRNKFQTMLQLEQQIQAQQ”, the protein production entry is “not failed”. Take “MAAAVPQRAWTVEQLRSEQLPKKDIIKFLQEHGSDSFLAEHKLLGNIKNVAKTANKDHLVTAYNHLFETK”: the protein production entry is on record as “not failed”. As to “MAADGIFRSIFEGCISGLDSAIERRPYHKNCGCALHDKSSGAGKNQNQRRPPSCRRHGSSESISFPIRRSWSEGNIMAMNLFSSSSSSSNLQSLSSSSSLSNLASDLPVDNAATEEPSRSNKQLRWTIDEGEDD”, the protein production entry was “failed”. Then “MAADHTDVLIVGAGPTGLFAGFYVGMRGLSFRFVDPLPEPGGQLTALYPEKYIYDVAGFPKVYAKDLVKGLVEQVAPFNPVYSLGERAETLEREGDLFKVTTSQGNAYTAKAVIIAAGVGAFEPRRIGAPGEREFEGRGVYYAVKSKAEFQGKRVLIVGGGDSAVDWALNLLDTARRITLIHRRPQFRAHEASVKELMKAHEEGRLEVLTPYELRRVEGDERVRWAVVFHNQTQEELALEVDAVLILAGYITKLGPLANWGLALEKNKIKVDTTMATSIPGVYACGDIVTYPGKLPLIVLGFGEAAIAANHAAAYANPALKVNPGHSSEKAAPGT”, with “not failed”; and “MAAGAAEAAVAAVEEVGSAGQFEELLRLKAKSLLVVHFWAPWAPQCAQMNEVMAELAKELPQVSFVKLEAEGVPEVSEKYEISSVPTFLFFKNSQKIDRLDGAHAPELTKKVQRHAS”, with “not failed”; and “MAAGRHCRAPHRCQTHPRLIALGHNHRMNAQLTQELPEFPTWLNARPSTLQEHRGRALVLAFVNASSVWCAERLAELAHWQARSPGRLQVIVVQVPRFDSERLPQRSLKQLRGHGVSAPILLDKDWETWRRFGIESWPTLVLLDAYGRERQRLVGVTGDLDKALTALCEGQPPPSDADLHGVAEREPEPHLALRFPTGLAATEDRLYVADTGHHRVLECTHSGRVLRQFGHGNADLIDGGVGEAAFRRPQGLALERDQLYVADTGNHALRRINLRSGQVDTLCGTGRSGEPVEGPLASPGGSALNYPQGLAIADNQVLIAMAGDNRIWSYHLGRAALTARAGTGALEIRDGSGHLAAFAQPAGLASVQQVAYVCDGLGSSIRTMQLRGDLVQTLVGGQGTWQFGDQDGPRSTARLQFPQAIALAADSPLLWIADTGNGRLRCLRLGGGELTTVALPRRLHGPAGLAVAAGAVWIAETDAHAILRYDLASGALSDVSIDE”, with “failed”. As for “MAAGSLLTLLDDIATLLDDVALATKKTAGVLGDDLALNAQQVTGVSADRELPVVWAVAKGSLLNKAILVPAALLISAFAPWAILPLLMIGGAFLCFEGFEKIAHKWLHPEAGEEHDQRKQAATDASVDMVAFEKERIKGAIRTDFILSAEIIVLALGVVSARPFMDQVGVLVIVAVLITVGVYGLVAGIVKLDDLGLHLKRTASSVAQTIGSALLWLAPVLMKVLSIVGTAAMFMVGGGILVHGLPFAHHWADGVTEAASAAVGGLSMIVPTLIDAIAGIIAGAVLVLIVTLVGKVWKAARE”, the protein production entry is “not failed”. On to “MAAGTDSTGTFATRHSANECLQLQERLWLLEQIAGSASRTALRTTVARGNECRLASCIDLNPEGRPILPSCSALGRAGAAARCCAGRRGRSRARARPAGQTGGGSRVAAECRHISHRGGRGIPVSGGGGAWRSGGASNGRGVFLRPAGTGGSRLATGARQANLGCGPRPACPPAMDQDYERRLLRQIIIQNENTVPCVSEMRRTLTPANSPVSSPSKHGDRFIPSRAGANWSVNFHRINENEKSPSQNRKAKDATSDNGKDGLAYSALLKNELLGAGIEKVQDPQTEDRRLQPSTPEHKGLFTYSLSSKRSSPDDGNDVSPYSLSPVSNKSQKLLRSPRKPTRKISKIPFKVLDAPELQDDFYLNLVDWSSLNVLSVGLGTCVYLWSACTSQVTRLCDLSVEGDSVTSVGWSERGNLVAVGTHKGFVQIWDAAAGKKLSVLEGHTARVGALAWNADQLSSGSRDRMILQRDIRTPALQSERRLQGHRQEVCGLKWSTDHQLLASGGNDNKLLVWNHSSLSPVQQYTEHLAAVKAIAWSPHQHGLLASGGGTADRCIRFWNTLTGQPLQCIDTGSQVCNLAWSKHANELVSTHGYSQNQILVWKYPSLTQVAKLTGHSYRVLYLAMSPDGEAIVTGAGDETLRFWNVFSKTRSTKESVSVLNLFTRIR”, for which the protein production entry is reported as “failed”. On to “MAAGTFTAQNKVRPGVYINFKSEPQAAGTLGERGIVSMPLILSWGEPGKMITIEAGDDVFPKLGYSIMDAQLRLINEALKRAKTLLLYRLNAGTKAAVTVGNLTVTAKWGGARGNDITLVIQENIDDETKFDVSTLVDGAELDKQTVSDIAGLAANDWVIFSGTGALTETAGAPLINGSDGAVTNQAYIDYLAAVEIFDFNTIALPSTDDALKATFTAFAKRLRDDEGKKIQVVLENYPAADYEGVISVKNGVVLADGTILTAAQATAWVAGATAGARVNESLTYQGYDEAVDVAPRYTNAQIIAALQAGEFLFTASDNQALVEQDINTLTSFTADKGKQFAKNRVIRVLDGINNDFVRIFSKFYIGKVSNNADGRNLLKSECINYMNTLQDIDAIKNFDGQTDLTVQSGNDVDAVYIEAYAWPVDSIEKIYVRVRIKLEHHHHHH”, for which the protein production result was “not failed”. Regarding “MAAIDAALKAGEKILSIYEDPKSDFEIERKADNSPLTIADRKAHEAIVAILNETPFPVLSEEGKHMDYAVRRGWDTLWIVDPLDGTKEFIKRNGEFTVNIALVQNAVPVMGVIYVPVKKELYFAVEGTGAYKCSGIVGLEDEGVTLQQMIEKSERMPLADARDHFIAVASRSHLTPETETYIADLKKKHGNVELISSGSSIKICLVAEGKADVYPRFAPTMEWDTAAGHAIARAAGMEVYQAGKEEPLRYNKEDLLNPWFIVEAKRER”, the protein production entry is listed as “not failed”.

Source of the values: a protein production outcome set (Wang et al. 2014).
